In doi:10.1101/2020.02.02.931204, “Fast Transport of RNA Granules by Direct Interactions with KIF5A/KLC1 Motors Prevents Axon Degeneration” (bioRxiv, 2020):

Target: T1, KLC1 (TPR1-6) fragment, human KNS2 residues 205-501 (human, UniProt Q07866 205-501)
T1 construct: KLC1 (KNS2), human, residues 205-501 (TPR1-6), in the pET28MHL vector; No removal of the tag is described; also called purified human KLC1; source: E. coli BL21 (DE3), purified (Ni-NTA, Superdex-200 gel filtration)
Experiment: ITC; KLC1 (TPR1-6) at 20μM in the cell, SFPQ peptide at 200μM in the syringe, 30 injections of 4μL; 20mM HEPES pH 7.5, 150mM NaCl, 0.5mM TCEP, 2% DMSO, 25°C; single site model
Settings: both partners purified

T1 sequence (Q07866 205-501): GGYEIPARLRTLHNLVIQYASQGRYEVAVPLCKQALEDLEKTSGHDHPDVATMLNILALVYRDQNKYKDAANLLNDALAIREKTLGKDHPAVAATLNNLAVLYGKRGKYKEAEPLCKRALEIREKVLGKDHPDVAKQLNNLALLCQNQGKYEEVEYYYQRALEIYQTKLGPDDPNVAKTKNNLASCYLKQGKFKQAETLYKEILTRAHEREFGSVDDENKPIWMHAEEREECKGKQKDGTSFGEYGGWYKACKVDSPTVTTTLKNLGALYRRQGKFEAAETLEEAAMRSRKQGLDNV

Kd: 3.8 ± 2.3 µM
stoichiometry N: 1
B1: SFPQ WT peptide spanning the Y-acidic motif (peptide)
peptide: ESEMEDAYHEHQANLLR
notes: SFPQ, human, stretch of the coiled coil domain with the Y-acidic motif; the underlined Y is Y527; also called long SFPQ peptide; WT SFPQ; source: synthetic peptide (KE BioChem)
